Results: the RNAGym collection of RNA variant scans (doi:10.1073/pnas.2313332121)

B1: TPR t1 (parent)
chain: GACCAAUCUGCCCUCAGAGCUCGAGAACAUCUUCGGAUGCAGAGGAGGCAGGCUUCGGUGGCGCGAUAGCGCCAACGUCCUCAACCUCCAAUGCAUCCCACCACAUGAUGAUGCCUGAAGAGCCUUGGUUUUUUG

Variants of: B1
Experiment: polymerase ribozyme fitness, log enrichment relative to wild type (log ratio); higher = more active; in vitro selection for triplet polymerase activity
Outline: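 Each subunit of a heterodimeric triplet polymerase ribozyme was mutagenized into a library by PCR, transcribed, and subjected to one round of in vitro selection, run in triplicate. Libraries were annealed with a biotinylated primer, the partner subunit and triplets, incubated frozen at −7 °C, and extended constructs were gel-excised, captured on streptavidin beads and recovered by RT-PCR. Input and output libraries were sequenced on Illumina, keeping genotypes with ≥10 input reads and ≥1 read per output. Fitness is log base 2 of genotype enrichment divided by wild-type enrichment, from inverse-variance-weighted replicate averages.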

Variant	polymerase ribozyme fitness (log ratio)
GACCAAUCGGCCCCCAGAGCUCGAGAACAUCUUCGGAUGCAGAGGAGGCAAGCUUUGGUGGCGCGAUAGCGCCAACGUCAUCAACCUCCAAUGCAUCCCACCACAUGAUGAUGCCUGAAGAGCCUUGGUUUUUUG	-3.92
GACCAAUCGGCCCUCAGAGCUCGAGAACAUCUUCGGAUGCAGAGGAGGCAGGCUUCGGUAGCGCGAUAGCGCCAACGUCCUCAACCUCCAAGGCAUCCCACCACAUGAUGAUGCCUGAAGAGCCUUGGUUUUUUG	-2.36
GACCAAUCGGCCCUCAGAGCUCGAGAACAUCUUCGGAUGCAGAGGAGGCAGGCUUCGGUGGCGCGAUAGCGCCAACGUCCUCAACCUCCAAUGCAUCCCACCACAUGAUCAUGCCUGAAGAGCCUUGGUUUUUUG	-4.11
GACCAAUCGGCCCUCAGAGCUCGAGAACAUCUUCGGAUGCAGAGGAGGCAGGCUUCGGUGGCCCGAUAGCGCCAACGUCCUCAACCUCCAAUGCAUCCCACCACAUGAUGAUGCCUGAAGAGCCUUGGUUUUUUG	-0.0322
GACCAAUCGGCCCACAGAGCUCGAGAACAUCUUCGGAUGCAGAGGAGGCAGGCUUCGGUGGCGCGAUAGCGCCAACGUCCUCAACCUCCAAUGCAUCCCACCACAUGAUGAUGCCUGAAGAGCCUUGGUUUUUUG	-0.133
GACCAAUCGGCCCUCAGAGCUCGAGAACAUCUUCGGAUGCAGAGGAGGCAGGCUUCGGUGGCGCGAUAGCGCCAACUUCCUCAACCUCCAAUGCAUCCCACCACAUGAUGAUGCCUGAAGAGUCUUGGUUUUUUG	1.93
GACCAAUCGGCCCUCAGAACUCGAGAACAUCUUCGGUUGCAGAGGAGGCAGGCUUCGGUGGCGCGAUAGUGCCAACGACCUCAACCUCCAAUGCAUCCCACCACAUGAUGAUGCCUGAAGAGCCUUGGUUUUUUG	-4.73
GACCAAUCGGCCCUCAGAGCUCGAGAACAUCUUCGGAUUCAGAGGAGGCAGGCUUCGGUGGCGCGAUAGCGCCAACGUCCUCAACCUCCAAUGCAUCCCACCACAUGAUGAUGCCUGAAGAGCCUUGGUUUUUUG	-0.00423
GACCAAUCGGCCCUCAGAGCUCGAGAACAUCUUCGGAUGCAGAGGAGGCAGGCUUCGGUGGCGCGAUACCGCCAACGUCCUCAACCUCCAAUGCAUCCCACCACAUGAUGAUGCCUGAAGAGCCUUGGUUUUUUG	-2.16
GACCAAUCGGCCCUCAGAGCUCGAGAACAUCUUCGGAUGCAGAGGAGGCAGGCUUCGGUGGCGCGAUAACGCCAACGUCCUCAACCUCCAAUGCAUCCCACCACAUGAUGAUGCCUGAAGAGCCUUGGUUUUUUG	-2.25
GACCAAUCGGCCCUCAGAGCUCGAGAACAUCUUCGGAUGCAGAGGAGGCAGGCUUCGGUGGCGCGAUAGCGCCAACGUCCUCAACCUCCAAUGAAUCCCACCACAUGAUGAUGCCUGAAGAGCCGUGGUUUUUUG	-1.1
GACCAAUCGGCCCUCAGAGCUCGAGAACAUCUUCUGAUGAAGAGGAGGCAGGCUUCGGUGGCGCGAUAGCGCCAACGUCCUCAACCUCCAAUCCAUCCCACCACAUGAUGAUGUCUGAAGAGCCUUGGUUUUUUG	-5.91
GACCAAUCGGCCCUCAGAGCUCGAGAACAUCUUCGGAUGCAUAGCAGGCAGGCUUCGGUGGCGCGAUAGCGCCAACGUCCUCAACCUCCAAGGCAUCCCACCACAUGAUGAUGCCUGAAGAGCCUUGGAUUUUUG	-6.64
GACCAAUCGGCCCUCAGAGCUCGAGAACAUCUUCUGAUGCAGAGGAGGCAGGCUUCGGUGGCGCGAUAGCGCCAACGUCCUCAACCUCCAAUGCAUCCCACCACAUGAUGUUGCCUGAAGAGCCUUGGUUUUUUG	-6.59
GACCAAUCGGCCCUCAGAUCUCGAGAACAUCUUCGGAUGCAGAGUAGGCAGGCUUCGGUGGCGCGAUAGCGCCAACGUCCUCAACCUCCAAUGCAUCCCACCACAUGAUGAUGACUGAAGAGCCUUGGUUUUUUG	1.58
GACCAAUCGGCCCUCAGAGCUCGAGAACAUCUUCGGAUGCAGAGGAGGCAGGCUUCGGUGCCGCGAUAGCGCCAACGUCCUCAACCUCCAAUGCAUCCCACCACAUGAUGAUGCCUGAAGAGCCUUGGUUUUUUG	-1.59
GACCAAUCGGCCCUCAGAGCUCGAGAACAUCUUCGGAGGCAGAGGAGGCAGGCUUCGGUGGCGCGAUAGUGCCAACGUCCUCAACCUCCAAUGCAUCCCACCACUUGAUGAUGCCUGAAGAGCCUUGGUUUUUUG	-4.46
GACCAAUCGGCCCUCAGAGCUCGAGAACAUCUUCGGAUGCAGAGGAGGCAGGCUUCGGUGUCGCGAUAGCGCCAACAUCCUCAACCUCCAAUGCAUGCCACCACAUGAUGAUGCCUGAAGAGCCUUGGUCUUUUG	-5.47
GACCAAUCGGCCCACAGAGCUCGAGAACAUCUUCGGAUGCAGAGGAGGCAGGCUUCGGUGGCGCGAUAGCGCCAACUUCCUCAACCUCCAAGGCAUCCCACCACAUGAUGAUGCCUGAAGAGCUUUGGUUUUUUG	-3.63
GACCAAUCGGCCCUCAGAGCUCGAGAACAUCUUCGGAUGCAGAGGAGGCAGGCUUCGGUGGCCCGAUAGCUCCAACGUACUCAACCUCCAAUGCAUCCCACCACAUGAUGAUGCCUGAAGAGCCUUGGUUUUUUG	-5.4
GACCAAUCGGCCCUCAGAGCUCGAGAACAUCUUCGUAUGCAGAGGAGGCAGGCUUCGGUCGCGCGAUAGCGCCAACGACCUCAACCUACAAUGCAUCCCACCACAUGAUGAUGCCUGAAGAGCCUUGGUUUUUUG	-1.68
